Experimental data as given in article PMC11648839.

What was measured:
[1] = molecular target: PmoA-eGFP (subunit A of the particulate methane monooxygenase enzyme complex, eGFP at the C-terminus) (UniProt Q607G3); assay: FRET or BRET; FRET-FLIM in living tobacco leaf epidermal cells; eGFP fusion as donor, mRFP fusion as acceptor; two-photon excitation at 920 nm, TCSPC; lifetime of the donor with acceptor compared with donor alone; region of interest on the nucleus
[2] = molecular target: eGFP-PmoA (subunit A of the particulate methane monooxygenase enzyme complex, eGFP at the N-terminus) (UniProt Q607G3); assay: as above

Substance | average eGFP (donor) fluorescence lifetime with acceptor [1] [ns] | Δ (reduction of donor lifetime against donor alone) [1] [ns] | average eGFP (donor) fluorescence lifetime with acceptor [2] [ns] | Δ (reduction of donor lifetime against donor alone) [2] [ns]
mRFP-PmoC (subunit C of the particulate methane monooxygenase enzyme complex, mRFP at the N-terminus) (natural protein) | 2.2 | 0.2 | 2.2 | 0.2
PmoC-mRFP (subunit C of the particulate methane monooxygenase enzyme complex, mRFP at the C-terminus) (natural protein) | 2.2 | 0.2 | – | –
